The record followed here is paper doi:10.1101/671156, “Oncoprotein CoAA repeats interact with RNA polymerase II CTD repeats” (bioRxiv, 2019).

Square brackets hold non-standard residues; d marks the D form. Ends that are not written are not given here. * marks the point of attachment. Biotin = O=C1N[C@H]2[C@H](CS[C@H]2CCCCC(=O)*)N1; Ahx = NCCCCCC(=O)O

The target of assay [1] is T1, GST-YxxQ (307-545), recombinant CoAA YxxQ repeats (human, UniProt Q96PK6 307-545).
T1 construct: CoAA (RBM14) YxxQ repeats, residues 307-545; also called YxxQ repeats (307-545); recombinant GST fusion CoAA YxxQ repeats; source: recombinant GST fusion protein
T1 sequence (looked up): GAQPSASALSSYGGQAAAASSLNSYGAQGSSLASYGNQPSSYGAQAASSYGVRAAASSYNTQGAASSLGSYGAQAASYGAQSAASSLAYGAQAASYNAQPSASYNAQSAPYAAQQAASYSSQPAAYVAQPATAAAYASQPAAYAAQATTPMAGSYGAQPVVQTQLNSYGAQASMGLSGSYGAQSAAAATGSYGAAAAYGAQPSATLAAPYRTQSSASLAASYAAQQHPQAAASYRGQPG
Kind of assay: ELISA; GST-YxxQ or GST-AxxQ (307-545) coated at 500 ng/well on 96-well plate with BSA; biotin-labeled diheptad peptides at 6.4-20000 ng/ml overnight; streptavidin-HRP, luminescence; EC50 by sigmoidal non-linear curve fit. To be noted: both partners purified. On the technique in general: In an ELISA, binding on a coated surface is turned into a signal by an enzyme label.

The target of assay [2] is T2, GST-YxxQ (307-545), recombinant CoAA YxxQ repeats (human, UniProt Q96PK6 307-545).
T2 chain: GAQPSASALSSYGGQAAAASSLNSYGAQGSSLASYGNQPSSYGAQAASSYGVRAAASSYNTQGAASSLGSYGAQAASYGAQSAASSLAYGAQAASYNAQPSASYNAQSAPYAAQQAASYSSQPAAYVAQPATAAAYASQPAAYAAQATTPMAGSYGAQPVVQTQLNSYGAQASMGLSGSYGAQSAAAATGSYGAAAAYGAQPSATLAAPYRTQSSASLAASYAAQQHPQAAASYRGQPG
The assay is described as follows: ELISA; competition with biotin-labeled pSer5 CTD peptide.

In assay [3] the target is T1, GST-YxxQ (307-545), recombinant CoAA …. The assay is described as follows: ELISA; competition: GST-YxxQ coated; non-labeled IERM peptide at 12.8-40000 ng/ml against a constant concentration of biotin-labeled CTD peptides; streptavidin-HRP. To be noted: both partners purified.

B1: biotin-labeled unphosphorylated CTD diheptad peptide (peptide)
peptide: KKSYSPTSPSYSPTSPS
modifications: biotin on the N-terminus; C6 spacer (aminocaproic acid) between KK and the peptide
notes: two lysine residues inserted between biotin and the C6 spacer: [Biotin]-KK-C6-peptide; diheptad of the CTD heptad repeats (YSPTSPS) of the RNAP II largest subunit; also called CTD peptide; unphosphorylated CTD peptide; source: synthetic peptide
With B1, the 50% effective concentration (EC50) – broadly, the concentration at which the effect is half-maximal – in assay [1] was 1070 nM.

B2: biotin-labeled Ser2-phosphorylated CTD diheptad peptide (peptide)
peptide: KKSYSPTSPSYSPTSPS
modifications: phosphoserine at Ser2 of each heptad (SYpSPTSPSYpSPTSPS); biotin on the N-terminus; C6 spacer (aminocaproic acid) between KK and the peptide
notes: two lysine residues inserted between biotin and the C6 spacer: [Biotin]-KK-C6-peptide; diheptad of the CTD heptad repeats of the RNAP II largest subunit, printed as SYpSPTSPSYpSPTSPS; also called pSer2 CTD; source: synthetic peptide
Consider B2, for which, in assay [1], the EC50 came out at 135 nM.

B3: biotin-labeled Ser5-phosphorylated CTD diheptad peptide (peptide)
peptide: KKSYSPTSPSYSPTSPS
modifications: phosphoserine at Ser5 of each heptad (SYSPTpSPSYSPTpSPS); biotin on the N-terminus; C6 spacer (aminocaproic acid) between KK and the peptide
notes: two lysine residues inserted between biotin and the C6 spacer: [Biotin]-KK-C6-peptide; diheptad of the CTD heptad repeats of the RNAP II largest subunit, printed as SYSPTpSPSYSPTpSPS; also called pSer5 CTD; source: synthetic peptide
With B3, in assay [1], the EC50 amounted to 101 nM.

B4: non-labeled IERM diheptad peptide (peptide)
peptide: TIERMGSGVERMGPA
notes: diheptad of the IERM repeats of hnRNP M, without biotin label; also called nonlabeled IERM peptide; IERM peptide; source: synthetic peptide
For the molecule B4, the IC50 (in general, the concentration that gives 50% inhibition) in assay [2] was determined as 106 nM. Further, the binding result in assay [3] is given as “binds”.

B5: biotin-labeled IERM diheptad peptide (peptide)
peptide: Biotin-KK[Ahx]TIERMGSGVERMGPA
notes: two lysine residues inserted between biotin and the C6 spacer: [Biotin]-KK-C6-peptide; diheptad of the IERM repeats of hnRNP M; also called IERM peptide; source: synthetic peptide
In the case of B5, the EC50 in assay [1] was found to be 83 nM.
